Measurements: US20110158985A1 (published 2011)
Values joined by “and” are separate entries in the source; they are usually repeats but may differ in a detail not shown here. Equal entries are not always repeated.

Legend:
murine FcRn = biological target: T1, murine FcRn (mouse, UniProt P01887 21-119); test: SPR (BIAcore 3000), FcRn over immobilised IgG1, pH 6.0, Scatchard
T1 construct: also called mouse FcRn; muFcRn
T1 sequence: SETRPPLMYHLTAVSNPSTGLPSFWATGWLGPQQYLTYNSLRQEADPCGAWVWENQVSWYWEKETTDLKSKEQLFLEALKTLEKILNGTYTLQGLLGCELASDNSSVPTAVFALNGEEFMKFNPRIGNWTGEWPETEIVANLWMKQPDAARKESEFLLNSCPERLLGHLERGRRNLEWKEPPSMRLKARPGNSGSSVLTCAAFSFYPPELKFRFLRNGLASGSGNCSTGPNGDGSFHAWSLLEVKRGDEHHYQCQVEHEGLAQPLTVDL
T1 sequence (b2m): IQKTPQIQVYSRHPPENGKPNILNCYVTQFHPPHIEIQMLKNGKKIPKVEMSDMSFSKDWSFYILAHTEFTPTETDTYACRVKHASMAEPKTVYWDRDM
Description: IgG1 variants was monitored by surface plasmon resonance detection using a BIAcore 3000 instrument (Pharmacia Biosensor, Uppsala, Sweden). […] The protein concentrations ranged from 3-5 μg/ml in 10 mM sodium acetate, pH 5.0. The activation period was set for 7 minutes at a flow rate of 10 μl/min and the immobilization period was set to between 10 and 20 minutes at a flow rate of 10 μl/min. […] Human and murine FcRn were buffer exchanged against 50 mM PBS buffer pH 6.0 containing 0.05% Tween 20. Dilutions were made in the same buffer. All binding experiments were performed at 25° C. with concentrations ranging from 120 to 1 μg/ml at a flow rate of 5 to 10 μl/min; data were collected for 25 to 50 minutes and three 1-minute pulses of PBS buffer pH 7.2 were used to regenerate the surfaces. FcRn was also flowed over an uncoated cell and the sensorgrams from these blank runs subtracted from those obtained with IgG1-coupled chips. Runs were analyzed using the software BIAevaluation 3.1 (Pharmacia). Association constants (KAs) were determined from Scatchard analysis by measuring the concentration of free reactants and complex at equilibrium after correction for nonspecific binding.

[1] = biological target: T2, recombinant C-terminally truncated RSV (A2 strain) F protein (RSV (A2 strain), UniProt P03420 26-524); test: SPR (BIAcore), IgG over immobilised F
T2 construct: extracellular domain; also called truncated F protein; extracellular domain of the F protein from RSV A2

Bac-F = Bac-F (respiratory syncytial virus); test: SPR (BIAcore), mAb vs Bac-F (1:1)
Chain of Bac-F (respiratory syncytial virus) (P03420 26-524): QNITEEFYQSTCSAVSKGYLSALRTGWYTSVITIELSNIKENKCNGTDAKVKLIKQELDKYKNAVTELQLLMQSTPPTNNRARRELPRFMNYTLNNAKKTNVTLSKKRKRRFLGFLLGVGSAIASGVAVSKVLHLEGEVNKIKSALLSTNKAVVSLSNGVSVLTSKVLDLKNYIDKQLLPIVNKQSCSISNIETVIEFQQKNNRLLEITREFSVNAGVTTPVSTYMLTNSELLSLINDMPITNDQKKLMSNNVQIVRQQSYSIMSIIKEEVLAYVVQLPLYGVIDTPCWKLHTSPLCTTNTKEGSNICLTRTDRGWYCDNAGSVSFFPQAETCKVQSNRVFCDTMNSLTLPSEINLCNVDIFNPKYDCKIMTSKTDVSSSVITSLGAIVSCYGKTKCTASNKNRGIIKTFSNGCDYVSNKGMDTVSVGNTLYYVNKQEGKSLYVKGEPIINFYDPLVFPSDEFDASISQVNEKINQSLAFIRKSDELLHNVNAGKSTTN

[2] = biological target: T3, F protein of RSV (Long strain) (RSV (Long strain), UniProt P12568 26-574); test: cell-based or functional assay
[3] = biological target: T3, F protein of RSV (Long strain); test: cell-based or functional assay; remark: listed apart in the source
Target sequence in this assay (P12568 26-574): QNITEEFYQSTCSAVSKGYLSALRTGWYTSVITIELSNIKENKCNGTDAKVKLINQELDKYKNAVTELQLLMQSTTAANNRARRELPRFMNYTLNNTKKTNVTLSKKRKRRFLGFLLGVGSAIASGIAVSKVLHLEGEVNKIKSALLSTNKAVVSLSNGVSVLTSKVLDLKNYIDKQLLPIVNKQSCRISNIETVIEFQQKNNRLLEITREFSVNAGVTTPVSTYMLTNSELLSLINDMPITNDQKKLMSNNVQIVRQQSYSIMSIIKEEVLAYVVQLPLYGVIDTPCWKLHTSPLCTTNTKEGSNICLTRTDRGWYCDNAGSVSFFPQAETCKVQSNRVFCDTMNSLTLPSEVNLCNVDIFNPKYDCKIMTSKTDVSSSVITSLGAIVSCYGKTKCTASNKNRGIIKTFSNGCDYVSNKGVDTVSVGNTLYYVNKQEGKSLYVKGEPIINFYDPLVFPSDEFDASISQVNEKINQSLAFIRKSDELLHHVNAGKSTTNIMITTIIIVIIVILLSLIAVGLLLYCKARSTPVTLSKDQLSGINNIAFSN

[4] = biological target: T4, RSV F glycoprotein (NUF4) (respiratory syncytial virus); test: SPR (BIAcore), mAb vs NUF4 (1:1)
T4 chain 1: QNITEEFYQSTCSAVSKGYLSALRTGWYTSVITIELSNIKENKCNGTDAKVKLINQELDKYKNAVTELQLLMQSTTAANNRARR
T4 chain 2: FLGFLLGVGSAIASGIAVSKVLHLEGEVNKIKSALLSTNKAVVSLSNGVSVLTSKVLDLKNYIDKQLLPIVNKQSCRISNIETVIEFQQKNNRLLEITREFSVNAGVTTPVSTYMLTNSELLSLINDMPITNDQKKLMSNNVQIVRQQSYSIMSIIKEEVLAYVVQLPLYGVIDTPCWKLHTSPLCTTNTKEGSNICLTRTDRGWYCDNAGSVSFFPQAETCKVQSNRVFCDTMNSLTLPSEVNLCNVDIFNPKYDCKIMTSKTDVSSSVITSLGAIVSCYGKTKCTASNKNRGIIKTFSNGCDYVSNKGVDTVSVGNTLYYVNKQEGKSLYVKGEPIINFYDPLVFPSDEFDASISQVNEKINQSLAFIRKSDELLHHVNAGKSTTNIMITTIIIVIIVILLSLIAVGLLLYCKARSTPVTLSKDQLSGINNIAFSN

[5] = biological target: T4, RSV F glycoprotein (NUF4); test: SPR (BIAcore), mAb vs NUF4 (2:1)
[6] = biological target: T2, recombinant C-terminally truncated RSV …; test: SPR (BIAcore), Fab over immobilised F
Target sequence in this assay (P03420 137-524): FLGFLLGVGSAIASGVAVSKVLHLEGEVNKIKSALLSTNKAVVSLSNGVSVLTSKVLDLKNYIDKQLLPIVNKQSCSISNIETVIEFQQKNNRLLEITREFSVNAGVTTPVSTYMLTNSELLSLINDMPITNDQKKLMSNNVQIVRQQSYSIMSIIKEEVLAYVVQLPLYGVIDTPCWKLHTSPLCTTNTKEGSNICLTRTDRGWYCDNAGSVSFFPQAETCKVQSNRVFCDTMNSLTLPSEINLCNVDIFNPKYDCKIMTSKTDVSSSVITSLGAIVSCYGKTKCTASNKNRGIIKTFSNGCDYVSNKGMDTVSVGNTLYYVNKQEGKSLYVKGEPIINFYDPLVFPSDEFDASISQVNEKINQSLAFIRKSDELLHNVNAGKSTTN

[7] = biological target: T2, recombinant C-terminally truncated RSV …; test: SPR (BIAcore), Fab over immobilised F; remark: listed apart in the source
[8] = biological target: T2, recombinant C-terminally truncated RSV …; test: SPR (BIAcore), Fab over immobilised F; remark: listed apart in the source
Target sequence in this assay (P03420 26-109, chain 1 of 2): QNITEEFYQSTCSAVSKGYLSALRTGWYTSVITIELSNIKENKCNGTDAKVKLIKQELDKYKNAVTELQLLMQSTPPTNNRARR
Target sequence in this assay (P03420 137-524, chain 2 of 2): as the sequence (P03420 137-524) above

| Binder | Kd (murine FcRn) | ΔΔG (murine FcRn) | Kd [1] | koff [1] | kon [1] | Kd (Bac-F) | fold in parentheses (palivizumab = 1) (Bac-F) | Microneutralization IC50, IgG [2] | Mean IC50 (Control) [3] | Mean IC50 (Curve) [3] | Kd [4] | fold in parentheses (palivizumab = 1) [4] | koff [4] | kon [4] | Kd [5] | fold in parentheses (palivizumab = 1) [5] | koff [5] | kon [5] | also measured |
| --- | --- | --- | --- | --- | --- | --- | --- | --- | --- | --- | --- | --- | --- | --- | --- | --- | --- | --- | --- |
| human IgG1 MEDI-493 (palivizumab) H433K/N434F/Y436H (antibody) heavy: QVTLRESGPALVKPTQTLTLTCTFSGFSLSTSGMSVGWIRQPPGKALEWLADIWWDDKKDYNPSLKSRLTISKDTSKNQVVLKVTNMDPADTATYYCARSMITNWYFDVWGAGTTVTVSSASTKGPSVFPLAPSSKSTSGGTAALGCLVKDYFPEPVTVSWNSGALTSGVHTFPAVLQSSGLYSLSSVVTVPSSSLGTQTYICNVNHKPSNTKVDKRVEPKSCDKTHTCPPCPAPELLGGPSVFLFPPKPKDTLMISRTPEVTCVVVDVSHEDPEVKFNWYVDGVEVHNAKTKPREEQYNSTYRVVSVLTVLHQDWLNGKEYKCKVSNKALPAPIEKTISKAKGQPREPQVYTLPPSREEMTKNQVSLTCLVKGFYPSDIAVEWESNGQPENNYKTTPPVLDSDGSFFLYSKLTVDKSRWQQGNVFSCSVMHEALKFHHTQKSLSLSPGK light: DIQMTQSPSTLSASVGDRVTITCKCQLSVGYMHWYQQKPGKAPKLLIYDTSKLASGVPSRFSGSGSGTEFTLTISSLQPDDFATYYCFQGSGYPFTFGGGTKLEIKRTVAAPSVFIFPPSDEQLKSGTASVVCLLNNFYPREAKVQWKVDNALQSGNSQESVTEQDSKDSTYSLSSTLTLSKADYEKHKVYACEVTHQGLSSPVTKSFNRGEC | 14000 pM | 1.8 kcal/mol |  |  |  |  |  |  |  |  |  |  |  |  |  |  |  |  |  |
| human IgG1 MEDI-493 (palivizumab) N434F/Y436H (antibody) heavy: not shown light: DIQMTQSPSTLSASVGDRVTITCKCQLSVGYMHWYQQKPGKAPKLLIYDTSKLASGVPSRFSGSGSGTEFTLTISSLQPDDFATYYCFQGSGYPFTFGGGTKLEIKRTVAAPSVFIFPPSDEQLKSGTASVVCLLNNFYPREAKVQWKVDNALQSGNSQESVTEQDSKDSTYSLSSTLTLSKADYEKHKVYACEVTHQGLSSPVTKSFNRGEC | 9000 pM | 2 kcal/mol |  |  |  |  |  |  |  |  |  |  |  |  |  |  |  |  |  |
| human IgG1 MEDI-493 (palivizumab) M252W (antibody) heavy: not shown light: DIQMTQSPSTLSASVGDRVTITCKCQLSVGYMHWYQQKPGKAPKLLIYDTSKLASGVPSRFSGSGSGTEFTLTISSLQPDDFATYYCFQGSGYPFTFGGGTKLEIKRTVAAPSVFIFPPSDEQLKSGTASVVCLLNNFYPREAKVQWKVDNALQSGNSQESVTEQDSKDSTYSLSSTLTLSKADYEKHKVYACEVTHQGLSSPVTKSFNRGEC | 30000 pM | 1.3 kcal/mol |  |  |  |  |  |  |  |  |  |  |  |  |  |  |  |  |  |
| human IgG1 MEDI-493 (palivizumab) M252Y/T256Q (antibody) heavy: not shown light: DIQMTQSPSTLSASVGDRVTITCKCQLSVGYMHWYQQKPGKAPKLLIYDTSKLASGVPSRFSGSGSGTEFTLTISSLQPDDFATYYCFQGSGYPFTFGGGTKLEIKRTVAAPSVFIFPPSDEQLKSGTASVVCLLNNFYPREAKVQWKVDNALQSGNSQESVTEQDSKDSTYSLSSTLTLSKADYEKHKVYACEVTHQGLSSPVTKSFNRGEC | 39000 pM | 1.1 kcal/mol |  |  |  |  |  |  |  |  |  |  |  |  |  |  |  |  |  |
| A1e9 IgG (antibody, V domains shown, also called Ale9) VH: QVTLRESGPALVKPTQTLTLTCTFSGFSLSTAGMSVGWIRQPPGKALEWLADIWWDGKKHYNPSLKDRLTISKDTSKNQVVLKVTNMDPADTATYYCARDMIFNWYFDVWGQGTTVTVSS VL: DIQMTQSPSTLSASVGDRVTITCSLSSRVGYMHWYQQKPGKAPKLLIYDTFKLSSGVPSRFSGSGSGTEFTLTISSLQPDDFATYYCFQGSGYPFTFGGGTKVEIKR |  |  | 330 pM | 0.000143 s⁻¹ | 433000 M⁻¹ s⁻¹ | 330 pM | 12 fold | 0.0625 µg/ml and 0.42 nM | 0.0645 µg/mL | 0.0625 µg/mL | 690 pM | 13 fold | 0.000584 s⁻¹ | 843000 M⁻¹ s⁻¹ | 4220 pM | 74 fold | 0.00139 s⁻¹ | 329000 M⁻¹ s⁻¹ |  |
| P12f4 IgG (antibody, V domains shown) VH: QVTLRESGPALVKPTQTLTLTCTFSGFSLSTPGMSVGWIRQPPGKALEWLADIWWDGKKHYNPSLKDRLTISKDTSKNQVVLKVTNMDPADTATYYCARDMIFNFYFDVWGQGTTVTVSS VL: DIQMTQSPSTLSASVGDRVTITCSLSSRVGYMHWYQQKPGKAPKLLIYDTRGLPSGVPSRFSGSGSGTEFTLTISSLQPDDFATYYCFQGSGYPFTFGGGTKVEIKR |  |  | 112 pM | 5.55e-05 s⁻¹ | 495000 M⁻¹ s⁻¹ | 110 pM | 35 fold | 0.242 µg/ml and 0.16 nM | 0.0235 µg/mL | 0.0242 µg/mL | 240 pM | 36 fold | 0.000229 s⁻¹ | 943000 M⁻¹ s⁻¹ | 2330 pM | 134 fold | 0.000636 s⁻¹ | 273000 M⁻¹ s⁻¹ |  |
| A8c7 IgG (antibody, V domains shown) VH: QVTLRESGPALVKPTQTLTLTCTFSGFSLSTAGMSVGWIRQPPGKALEWLADIWWDDKKSYNPSLKDRLTISKDTSKNQVVLKVTNMDPADTATYYCARDMIFNWYFDVWGQGTTVTVSS VL: DIQMTQSPSTLSASVGDRVTITCSPSSRVGYMHWYQQKPGKAPKLLIYDTRYQSSGVPSRFSGSGSGTEFTLTISSLQPDDFATYYCFQGSGYPFTFGGGTKVEIKR |  |  | 210 pM | 8.75e-05 s⁻¹ | 417000 M⁻¹ s⁻¹ | 210 pM | 19 fold | 0.0337 µg/ml and 0.22 nM | 0.0383 µg/mL | 0.0337 µg/mL | 650 pM | 13 fold | 0.000535 s⁻¹ | 825000 M⁻¹ s⁻¹ | 2650 pM | 118 fold | 0.00114 s⁻¹ | 430000 M⁻¹ s⁻¹ |  |
| PFFF Fab (Fab, name in Kabat numbering, V domains shown) VH: QVTLRESGPALVKPTQTLTLTCTFSGFSLSTPGMSVGWIRQPPGKALEWLADIWWDDKKDYNPSLKSRLTISKDTSKNQVVLKVTNMDPADTATYYCARSMITNFYFDVWGQGTTVTVSS VL: DIQMTQSPSTLSASVGDRVTITCSASSSVGYMHWYQQKPGKAPKLLIYDTFKLASGVPSRFSGSGSGTEFTLTISSLQPDDFATYYCFQGSFYPFTFGGGTKVEIK |  |  |  |  |  |  |  |  |  |  |  |  |  |  |  |  |  |  | fold higher affinity than palivizumab Fab [6]: > 117 fold; Kd [7]: ≤ 45 pM; koff [7]: ≤ 5e-06 s⁻¹; kon [7]: 110000 M⁻¹ s⁻¹ |
| P12f2 IgG (antibody, V domains shown) VH: QVTLRESGPALVKPTQTLTLTCTFSGFSLSTPGMSVGWIRQPPGKALEWLADIWWDDKKHYNPSLKDRLTISKDTSKNQVVLKVTNMDPADTATYYCARDMIFNFYFDVWGQGTTVTVSS VL: DIQMTQSPSTLSASVGDRVTITCSLSSRVGYMHWYQQKPGKAPKLLIYDTFYLSSGVPSRFSGSGSGTEFTLTISSLQPDDFATYYCFQGSGYPFTFGGGTKVEIKR |  |  | 314 pM | 0.000128 s⁻¹ | 407000 M⁻¹ s⁻¹ | 310 pM | 13 fold | 0.0231 µg/ml and 0.15 nM | 0.0223 µg/mL | 0.0231 µg/mL | 330 pM | 26 fold | 0.000178 s⁻¹ | 541000 M⁻¹ s⁻¹ | 840 pM | 371 fold | 0.000236 s⁻¹ | 282000 M⁻¹ s⁻¹ |  |
| A17f5 Fab (Fab, V domains shown) VH: QVTLRESGPALVKPTQTLTLTCTFSGFSLSTAGMSVGWIRQPPGKALEWLADIWWDDKKDYNPSLKDRLTISKDTSKNQVVLKVTNMDPADTATYYCARDMIFNWYFDVWGQGTTVTVSS VL: DIQMTQSPSTLSASVGDRVTITCSLSSRVGYMHWYQQKPGKAPKLLIYDTFRHTSGVPSRFSGSGSGTEFTLTISSLQPDDFATYYCFQGSGYPFTFGGGTKVEIK |  |  |  |  |  |  |  |  |  |  |  |  |  |  |  |  |  |  | fold improvement in koff (against palivizumab Fab) [6]: 8 fold; fold increase in kon over W100F [6]: 3 fold; Microneutralization IC50, Fab [2]: 0.106 µg/ml and 2.12 nM; Kd [8]: 154 pM; koff [8]: 8.4e-05 s⁻¹; kon [8]: 544000 M⁻¹ s⁻¹ |
